{
  "source": "the nanobody polyreactivity screen of Harvey et al. (2022)",
  "data": [
    {"test": "yeast display, Sf9 membrane polyspecificity reagent, FACS + sequencing; frameworks hold sequencing errors", "how_it_was_run": "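Synthetic nanobody libraries on Saccharomyces cerevisiae BJ5465 were galactose-induced for 36–48 hours, stained 1 hour at 4 °C with 10% biotinylated, detergent-solubilized Sf9 membrane reagent and enriched on streptavidin microbeads. FACS then separated cells into low and high (top ~1%) gates by anti-HA (expression) and streptavidin (reagent binding) fluorescence. Genes were colony-PCR amplified, MiSeq 2 × 250 sequenced and CDR-length filtered. A clone's polyreactivity label is that of its gate of origin.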", "values": [
      {"sequence": "QVQLVESGGGLVQAGGSLRLSCAASGIIFIKYAMGWYRQAPGKERELVAGINVSSGGDTYADSVKGRFTISRDNAKNTVYLQMNSLKPEDTAVYYCNAGTGGPDYVFITEYDYWGQGTQVTVSS", "polyreactivity (PSR sort gate)": "low polyreactivity"},
      {"sequence": "QVQLVESGGGLVQAGGSLRLSCAASGLIFIKNAMGWYRQAPGKERELVAAITRGSSTTYADSVKGRFTISRDNAKNTVYLQMNSLKPEDPAVYYCAAQYGGGYLKPYRREYWGQGTQVTVSS", "polyreactivity (PSR sort gate)": "high polyreactivity"},
      {"sequence": "QVQLVESGGGLVQAGGSLRLSCAASGSTFHRNAMGWYRQAPGKERELVAAITSGGSTNYADSEKGRFTISRDNAKNTVYLQMNRLKPEDTPVYYCAKDDRHYNRGWYDYWGQGTQVTVSS", "polyreactivity (PSR sort gate)": "low polyreactivity"},
      {"sequence": "QVQLVDSGGGLVQAGGSLRLSCAACGSTFVLYGMGWYRQAPGKQRELVADITGGGSSTYYADSVKGRFTISRDYAKNTVYLQMNSLKPEDTAVYYCNADYYPFYWIEPATPYLGFDYWGQGTQVTVSS", "polyreactivity (PSR sort gate)": "low polyreactivity"},
      {"sequence": "QVQLVESGGGLVQAGGSLRLSCAASGSTIRFYYMGWYRQEPGKERELVAAITGIGDSTYYSDSVKGRFTISRDNAKNSVYLQMNSLKPEDTAVYYCAAERYYYTARLRYWRYFWGQGTQVTVSS", "polyreactivity (PSR sort gate)": "high polyreactivity"},
      {"sequence": "QVQLVESGGGLVQAGGSLRLSCAASGRIFTGYTMGWYRQAPGKERELVAGITGSSGSTYYADSVKGRFTISRDNAKNTVYLQMNSLKPEDTAVYYCAAGRRYRSVGYGYWGQGTQVTVSS", "polyreactivity (PSR sort gate)": "high polyreactivity"},
      {"sequence": "QVQLVESGGGLVQAGGSLRLSCAASGNTFSYYAMGWYRQAPGKEREFVAAIRKSGASTYYADSVKGRFTISRDNAKNTVYLQMNSLKPEDTAVYYCAADGQVSYALGFDYWGQGTQVTVSS", "polyreactivity (PSR sort gate)": "high polyreactivity"},
      {"sequence": "QVQLVESGGGLVQAGGSLRLSCAASGFTFRVYAMGWYRQAPGKERELVAAITKRGGSTYYADSVKGRFTISRDNAKNTVYLQMNSLKPEDTAVYYCATENTPHYASHGYWGQGTQVTVSS", "polyreactivity (PSR sort gate)": "high polyreactivity"},
      {"sequence": "QVQLVESGGGLVQAGGSLRLSCAASGLTFYYYYTMGWYRQAPGKERELVAAISRSGSTNYADSVKGRFTISRDNAKNTVYLQMNSLKPEDTAVYYCARSYRSDGSRFGYWGQGTQVTVSS", "polyreactivity (PSR sort gate)": "low polyreactivity"},
      {"sequence": "QVQLVESRGGLVQAGGSLRLSCAASGSIFVWNAKGWYRQAPGKERELVAAINVRSASTFYADSVKGRFTISRDIAKNTVYLQMNSLKPEDTAVYYCATSYTKQGFRYYYWGQGTQVTVSS", "polyreactivity (PSR sort gate)": "high polyreactivity"},
      {"sequence": "QVQLVESGGGLVQAGGSLRLSCAASGGTFYYYAMGWYRQAPGKERELVAAISRDGSTYYADSVKGRFTISRDNAKNTVYLQMNSLKPEDTAVYYCAVRTRRKYGYWGQGTQVTVSS", "polyreactivity (PSR sort gate)": "high polyreactivity"},
      {"sequence": "QVQLVESGGGLVQAGGSLRLSCAASGRTFSWYTMGWYRQAPGNERELVAVINYSGGSTYYADSVKGRFTISRDNAKNTVYLQMTSLKPEDTAVYYCAARNVVTGYRYDYWGQGTQVTVSS", "polyreactivity (PSR sort gate)": "high polyreactivity"},
      {"sequence": "QVQLVESGGGLVQAGGSLRLSCAASGRIFVIYAKGWYRQAPGKERELVAVISSDGSTYYADSVKGRFTISRDNAKNTVYLQMNSLKPEDTAVYYCAADRIGRYRPYIGWVVRSYYWGQGTQVTVSS", "polyreactivity (PSR sort gate)": "low polyreactivity"},
      {"sequence": "QVHLQESGGGLVQACGSQRLSCAARGSISEGQDMGWYRRAPGKEREFVAGIAPGATTYYADSVRGRFTISRDNANNTVSLQMNSLKPEDTAVYYCAARTVTETDHDYWGQGTQVTVSS", "polyreactivity (PSR sort gate)": "low polyreactivity"},
      {"sequence": "QVQLVESGGGLVQAGGSLRLSCAASGSIFSRNAMGWYRQAPGKERELVAAITWSGGSTYYADSVKGRFTISRDNAKNTVYLQMNSLKPEDTAVYYCNAKRSSRIKQLEYDYWGQGTQVTVSS", "polyreactivity (PSR sort gate)": "high polyreactivity"},
      {"sequence": "QVQLVESGGGLVQAGGSLRLSCAASGIIFRFYAMGWYRQAPGKERELVARIRSRGGSTYYADSVKGRFTISRDNAKNTVYLQMNSLKPEDTAVYYCAAGAGYPYYWGQGTQVTVSS", "polyreactivity (PSR sort gate)": "high polyreactivity"},
      {"sequence": "QVQLVETGGGLVQAGGSLRLSSGASGFIFVRNAMGWYRQAPGKEREFVAAINSSGGRTYYADSVKGRFTISRDNANNTVNLQMNSLKPEDTAVYYCAARPQPKKFYYWGQGTQETVSS", "polyreactivity (PSR sort gate)": "high polyreactivity"},
      {"sequence": "QVQLVESGGGLVQAGGSLRLSCAASGFSFIDNALGWYPQAPGKERELVAAITWSGGSTYYADSVKGRFTISRDNAKNTVYLQMNSLKPEDTAVYYCAATLWFGVAGDSRYDPPEYDYWGQGTQVTVSS", "polyreactivity (PSR sort gate)": "low polyreactivity"},
      {"sequence": "QVQLVESGGGLVQAGGSLRLSCAAYGRIFFNNAMGWYRQAPGKERELVAAINSGGRTNYADSVKGRFTISRDNAKNTVYLQMNSLKPEDTAVYYCNADDYPVWEFDYWGQGTQVTVSS", "polyreactivity (PSR sort gate)": "low polyreactivity"},
      {"sequence": "QVQLVESGGRLVQAGGSLRLSCAASGYIFSRNAMGSYRQAPGKERELVATISRGGSTYYGDSVKGRFTISRDNDKNTVYLQMNSLKPEDTAVYFCAATVVYWRSKSSVRRYDYWGQGTQVTVSS", "polyreactivity (PSR sort gate)": "high polyreactivity"},
      {"sequence": "QVQLVESGAGLVQAGGILRLSCAASGRTFKVYAMGWDRQAPGKERELVAAISDRGGSTYDADSVKGRFTISRDYAKNTVYLQMNSLKPVDTAVYYCSAEYARSTWRAFPELDYWGQGTQVTVSS", "polyreactivity (PSR sort gate)": "low polyreactivity"},
      {"sequence": "QVQLVESGGGLVQAGGSLRLSCAASGFIFADYAMGWYRQAPGKERELVAAITSSGTRTYYADSVKGRFTISRDNAKNTVYLQMNSLKPEDTAVYYCAVRGVYYYHCAFDYWGQGTQVTVSS", "polyreactivity (PSR sort gate)": "high polyreactivity"},
      {"sequence": "QGQLVESGGGLVQAGGSLSLSCAASGSIFQGYAMGWYRQAPGNEWEFVAAISESDGSTYYADSVKGRCTISRDNAKNTVYLQMNSLKPEDTAVYYCAADKQAYVTDDYWGQGTQVTVSS", "polyreactivity (PSR sort gate)": "high polyreactivity"},
      {"sequence": "QVQLVESGGGLVQAGGSLRLSCAASGSNFDAYAIGWYRQAPGKERELVASISIGGSTNYADSVKGRFTISRDNAKNTVYLQMNSLKPEDSAVYYCAAYVYYTYPSGTVYSVSYIYDYWGQGTQVTVSS", "polyreactivity (PSR sort gate)": "low polyreactivity"},
      {"sequence": "QVQLVESGGGLVQAGGSLRLSCAASGRTFQNNAMGWYRQAPGKERELVAAISRSGASTYYADSVKGRFTISRDNAKNTVYLQMNSLKPEATAVYYCAAVTKLGYPPVNHLEDDYWGQGTQVTVSS", "polyreactivity (PSR sort gate)": "low polyreactivity"},
      {"sequence": "QVQLVESGGGLVQAGGSLRLSCAASGSTFIPYTMGWYRQAPGKERELVAAISGRGGRTYYADSVKGRFTISRDNAKNTVYLQMNSLKPEDTAVYYCNRVLRYGPSAQYDYWGQGTQVTVSS", "polyreactivity (PSR sort gate)": "high polyreactivity"},
      {"sequence": "QVQLVESGGGLVQAGGSLRLSCAASGSIIDWNAMGWYRQAPGKERELVAVISWGGGSTYADSVKGRFTISRDNAKNTVYLQMNSLKPEDTAVYNCNKEPIYYPVSDYDYWGQGTQVTVSS", "polyreactivity (PSR sort gate)": "low polyreactivity"},
      {"sequence": "QVQLVESGGGLVQAGGSLRLSCAASGSTLIANAMGWYRQAPGKERELVAGITYRGGDITTYADSVKGSFTNSSDNANNTVYLQINTLKPEDTAVYYCAAPVVWPTWARGGYWGQGTQVTVSS", "polyreactivity (PSR sort gate)": "low polyreactivity"},
      {"sequence": "QVQLVESGGGLVQAGGSLRLSCAASGRIFGFYAMGCYRQAPGKERELVAVITYRDGRTYYADSVKGRFTISRDNEKNTVYLQMNSLKPEDTAVYYCARGYQGRLKYESWGQGTQVTVSS", "polyreactivity (PSR sort gate)": "low polyreactivity"},
      {"sequence": "QVQLVESGGGLVQAGGSLRLSCAASGSTFCDYAMGWYRQAPGKERELVAAISSGGSTNYADSVKGRFTISRDNAKNTVYLQMNSLKPEDTAVYYCAVGYGGYYYWGQGTQVTVSS", "polyreactivity (PSR sort gate)": "high polyreactivity"},
      {"sequence": "QVQLVESGGGLVQAGGSLRLSCAASGSLFPHYAMGWNRQAPGKEREFVATISGSTGRTYYADSVKGRFTISRDNAKNTVYLQMNSLKPEDTAVYYCATSVGYYLPPIKYDYWGQGTQVTVSS", "polyreactivity (PSR sort gate)": "low polyreactivity"},
      {"sequence": "QVQLVESGGGLVQAGGSLRLSCAASGRIFFYYAMGLYRQATGKERELVAAITDSVDSTYYADSVKGRFTISRDNAKNTVYFQMKSLKPEDTAVYYCATDVDWAYGYHYEYWGQGPQVTVSS", "polyreactivity (PSR sort gate)": "low polyreactivity"},
      {"sequence": "QVQLVESGGGLVQAGGSLRLSCAASGRIFFYYAKGWSRQAPGKARELVAAINRGGRTYYADSVKGRFTISRDNAKNTVYLQMNSLKPEDTADYYCAADCHTAKSNFDYWGQGTQVTVSS", "polyreactivity (PSR sort gate)": "low polyreactivity"},
      {"sequence": "QVQLVESGGGLVQAGGSLRLSCAASGRIFVKNTMGLYRQAPGKERELVAAISWYGGSTYYADSVKGRFTISRDNAMNTVYLQMNSLKPEDTAFYYCAAATWQWPWYDYWGQGTKVTVSS", "polyreactivity (PSR sort gate)": "high polyreactivity"},
      {"sequence": "QVQHVESAGGLVQAGGSLRLSCPASGRTINRNAMGWYRQAPGKERELVAAISWSGGRTYYADSVKGRFTISRDTAKNTVYLQMTSLKPEDTAVFSCAAPGNKYWGQGTQVTVSS", "polyreactivity (PSR sort gate)": "high polyreactivity"},
      {"sequence": "QVQLVESGGGLVQAGGSLRLSCAASGSIFWLYAMGWYRQAPGKERELVASITGGGSTNYADSVKGRFTISRDNAKNTVYLQMNSLKPEDTAVYYCAKRYYRPGRKRTGLDYWGQGTQVTVSS", "polyreactivity (PSR sort gate)": "high polyreactivity"},
      {"sequence": "QVQLVESAGGLVQAGGSLPLSSAASGRIFVWYAMRWYRQAPGKDRELVAAISISGSSTYYADSVKGRFTISRDNAKNTVYLQMNSLNPEDTAVYYCAARFYSSAYWYDYWGQGTQVTVSS", "polyreactivity (PSR sort gate)": "high polyreactivity"},
      {"sequence": "QVQLVESGGGLVQAGGSLRLSCAASGSTFGFNAMGWYRQAPGKERELVAAIDGSAGSTYYADSVKGRFTISRDNAKNTVYLQMNSLKPEDTAVYYCAADIYWFIEYEYWGQGTQVTVSS", "polyreactivity (PSR sort gate)": "low polyreactivity"},
      {"sequence": "QVQLVESGGGLVQAGGSLRLSCAASGSTFGPNAMGWYRQAPGKERELVAAIRSNGGRTYYADSVKGRFTISRDNAKITVYLQMNSLKPEDSAVYYCADPHYPYDTPYGYWGQGTQVTVSS", "polyreactivity (PSR sort gate)": "low polyreactivity"},
      {"sequence": "QVQLVESGGGLVQAGGSLRLSCAAYGNTLDVNAMGWYRQAPGKERELVPAITSGGSTNYADSVKGRFTISRDNAKNTVYLQMNSLKPEDTAVYYCAKGSGVTYVTETLNTDYGYWGQGTQVTVSS", "polyreactivity (PSR sort gate)": "low polyreactivity"},
      {"sequence": "QVQLVESGGGLVQAGGSLRLSCAASGSIFYVYAMGWYSQARGKEMELVAAISSSAGSTYYADSVKVRFTISRDNAKTTVYLQINSLIPEDTAVDYCAAKVRYSLRKYYYWGQGTQVTVSS", "polyreactivity (PSR sort gate)": "high polyreactivity"},
      {"sequence": "QVQLVESGGGLVQAGGSLRLSCAASGRTIDHYAMGWYRQAPGKERELVAAISTTGGSTYYADSVKGRFTISRDNAKNTVYLQMNSLKPEDTAVYYCAARQRYFWYTTNYNYWGQGTQVTVSS", "polyreactivity (PSR sort gate)": "high polyreactivity"},
      {"sequence": "QVQLVESGGGLVQAGGSLRLSCAASGLIFYRYVMGWYRQAPGKERELVASISTSGGRTYYADSVKGRFTISRDNAKNTVYLQMNSLKPEDTAVYYFAADFESYSRYYDGYDYWGQGTQVTVSS", "polyreactivity (PSR sort gate)": "high polyreactivity"}
    ]}
  ]
}
